Reference: US20220112270

Tests used:
[1] = biological target: another recombinant AAT (R&D systems) (UniProt P01009)
[2] = biological target: plasma-derived human alpha 1-antitrypsin (AAT) (UniProt P01009)
[3] = test system: recombinant human alpha 1-antitrypsin (AAT) derived from recombinant CHO cells
[4] = test system: mouse AAT in mouse plasma

Substance: trypsin
- trypsin activity (fluorogenic peptide substrate) [1]: drastically reduced trypsin activity in a similar manner as ... another recombinant AAT (R&D systems)
- trypsin activity (fluorogenic peptide substrate) [2]: drastically reduced trypsin activity in a similar manner as a plasma-derived AAT (Prolastin)
- trypsin activity (fluorogenic peptide substrate) [3]: At a concentration of 5 ng/ml, the recombinant AAT described and obtained by the methods presented herein (ExcellGene) drastically reduced trypsin activity
- trypsin activity (fluorogenic peptide substrate) [4]: drastically reduced trypsin activity in a similar manner as ... mouse plasma diluted from a sample that contained about 1.2 g/L mouse AAT
